From patent US20180299467A1 come the findings set out here.

A value given as a limit tells only on which side of the number the result lay.

Data set [1] addresses F-actin. Nature of the data set: co-sedimentation with F-actin in the presence of TM, densitometry of pellet (FIG. 3C).
Data set [2] deals with F-actin.
Data set [3] relates to citrullinated F-actin (treated with PAD2).

With “cardiac troponin I (TnI), non-citrullinated”, the percent of TnI present in the pellet with F-actin [1] is over 95%. Same read-out and setting: the result for “citrullinated cardiac troponin I (TnI treated with PAD2)” reads over 95%. Regarding “citrullinated heavy meromyosin (HMM treated with PAD2)”, in the data set on F-actin [2], the “actomyosin HMM-ATPase activity” value was 0.22±0.002 nmol Pi and the “decrease in actomyosin HMM-ATPase activity against non-citrullinated HMM” value is “corresponding to 30% decrease in the enzyme activity”. The “actomyosin HMM-ATPase activity (rate of ATP hydrolysis)” value in data set [3] stood at 0.368±0.005 nmol Pi. With “heavy meromyosin (HMM), non-citrullinated”, in the data set on F-actin [2], the “actomyosin HMM-ATPase activity” value is on record as 0.32±0.01 nmol Pi. Moreover, in data set [3], the “increase in actomyosin HMM-ATPase rate against unmodified F-actin” value was “increased actomyosin HMM-ATPase rate by 55% compared to the unmodified F-actin”.
